Measurements from patent publication US12201676B2, “Composition comprising diamine oxidase for use in the treatment or prevention of fibromyalgia or chronic fatigue syndrome” (DR HEALTHCARE ESPAÑA, S.L., priority 2011, dated 2025).

Tests used:
[1] = test system: subjects diagnosed with chronic fatigue syndrome and with DAO deficit; test: Efficacy of DAO compositions in chronic fatigue syndrome, grades of improvement on the CLINIC scale; assay type: in vivo, human; details: chronic fatigue syndrome grades II, III and IV with DAO deficit, 4 mg DAO twice a day, count of 23 subjects
Experimental: Oral compositions containing DAO of the present invention were tested in a total of 46 subjects diagnosed with chronic fatigue syndrome, as out-patients.
To evaluate the degree of affectation of chronic fatigue syndrome in candidate study subjects, the quality of life of these subjects was evaluated using a simple scale of 4 successive grades (I, II, III and IV), with criteria used in the clinic. This scale is used in the Chronic Fatigue Syndrome (CFS) Functional Unit in the Hospital Clinic.
The CLINIC scale consists of dividing the patients with chronic fatigue syndrome into four different grades of functional affectation depending on the effect of their fatigue on quality of life:
GRADE I: the patient is sometimes or occasionally fatigued, without significant limitation (<50%) of work or daily life activities.
GRADE II: persistent presence of fatigue, oscillating but without improvement, with marked effect (>50%) on work and also daily life activities.
GRADE IV: extreme fatigue that requires the help of other people for basic personal activities and that makes autonomy and the activities of daily life impossible.
Improvement is evaluated when the patient passes from a higher to a lower grade in terms of the number of improvement grades.

histamine level in blood = test: Histamine level in blood of chronic fatigue syndrome subjects; assay type: in vivo, human; details: 4 mg DAO twice a day

B1: diamine oxidase (protein, UniProt P19801 20-751, looked up)
Diamine oxidase …: EPSPGTLPRKAGVFSDLSNQELKAVHSFLWSKKELRLQPSSTTTMAKNTVFLIEMLLPKKYHVLRFLDKGERHPVREARAVIFFGDQEHPNVTEFAVGPLPGPCYMRALSPRPGYQSSWASRPISTAEYALLYHTLQEATKPLHQFFLNTTGFSFQDCHDRCLAFTDVAPRGVASGQRRSWLIIQRYVEGYFLHPTGLELLVDHGSTDAGHWAVEQVWYNGKFYGSPEELARKYADGEVDVVVLEDPLPGGKGHDSTEEPPLFSSHKPRGDFPSPIHVSGPRLVQPHGPRFRLEGNAVLYGGWSFAFRLRSSSGLQVLNVHFGGERIAYEVSVQEAVALYGGHTPAGMQTKYLDVGWGLGSVTHELAPGIDCPETATFLDTFHYYDADDPVHYPRALCLFEMPTGVPLRRHFNSNFKGGFNFYAGLKGQVLVLRTTSTVYNYDYIWDFIFYPNGVMEAKMHATGYVHATFYTPEGLRHGTRLHTHLIGNIHTHLVHYRVDLDVAGTKNSFQTLQMKLENITNPWSPRHRVVQPTLEQTQYSWERQAAFRFKRKLPKYLLFTSPQENPWGHKRTYRLQIHSMADQVLPPGWQEEQAITWARYPLAVTKYRESELCSSSIYHQNDPWHPPVVFEQFLHNNENIENEDLVAWVTVGFLHIPHSEDIPNTATPGNSVGFLLRPFNFFPEDPSLASRDTVIVWPRDNGPNYVQRWIPEDRDCSMPPPFSYNGTYRPV
notes: Enzyme diamine oxidase
Number of grades of improvement: 1 (subjects) [1]: 16 of 23
Number of grades of improvement: 2 (subjects) [1]: 4 of 23
Histamine level in blood (histamine level in blood): 2-20 micrograms/0.1 L
